In test [1] the test system is PfMSP-1 subunits, full length p190 pro-peptide. It counts as binding, Plasmodium falciparum. The method, then: (§1) FIG. 13A: Schematic of the PfMSP-1 pro-peptide and the four inclusive subunits: p83, p30, p38, and p42. FIG. 13B: Purified anti-p84 B4, anti-p38 B8, anti-p42 A6, and anti-p42 G11 VHHs were biotinylated and these VHHs were incubated with plate bound subunits proteins as indicated. Binding ELISA was detected by using streptavidin-HRP and tetramethylbenzidine (TMB). Data are represented as optical density (OD). Error bars show SEM. FIG. 13C: Western blot of VHHs against the three PfMSP-1 subunits, the full length p190 pro-peptide, and some 3D7 lysates from −38-44 hour 3D7 schizonts. FIG. 13D: Flow cytometry on synchronized ˜38-44 hour 3D7 schizonts using fluorescently (Cy5) labeled VHHs.
(§2) Purified VHH nanobodies were biotinylated and tested for specificity toward isolated MSP-1 subunits. Anti-p83 B4, anti-p38 B8, anti-p42 A6, and anti-p42 G11 VHHs were each incubated with plate-bound p83, p38, p42, and p42, and binding to the plates was detected by an enzyme-linked immunoassay (ELISA) using streptavidin-horseradish peroxidase (HRP) and tetramethylbenzidine (TMB). […] Finally, purified VHHs were tested against live ˜38-44 hour 3D7 schizonts in a flow cytometry assay.

Test [2] has as its system P. falciparum merozoite surface protein 1 (MSP-1) subunits p83, p38, p42. Kind of test: ELISA of biotinylated VHHs on plate-bound MSP-1 subunits. It counts as binding, Plasmodium falciparum. The settings on record: streptavidin-HRP and TMB. The method, then:
as §1, with “FIGS. 13A-13D: VHH nanobodies bind specifically to Plasmodium falciparum: merozoite surface protein 1 (MSP-1). FIG. 13A:” for “FIG. 13A:”
as §2

For test [3], the system named is purified MICA*009 antigen in whole cell lysate. Briefly: Immunoblot with biotinylated anti-MICA nanobodies. The settings on record: 1 μg/mL, streptavidin-HRP. It is filed as binding, human. On the technique in general: In western blotting, separated proteins are transferred to a membrane and probed.
For test [4], the system named is empty vector (EV)-transfected B16F10 cells. It counts as binding. The settings on record: biotinylated, streptavidin-PE.
Another test relates to MICA*009. It counts as binding, human.
Another test addresses MICA*002 (Homo sapiens, UniProt Q29983, K148E/T47A/W37G). It is filed as binding.
Test [5] addresses T1, MICA-transfected B16F10 cells (Homo sapiens, UniProt Q29983).
T1 construct: expressed in transfected cells; host or cells: B16F10 mouse melanoma cells
T1 sequence (Q29983 24-383): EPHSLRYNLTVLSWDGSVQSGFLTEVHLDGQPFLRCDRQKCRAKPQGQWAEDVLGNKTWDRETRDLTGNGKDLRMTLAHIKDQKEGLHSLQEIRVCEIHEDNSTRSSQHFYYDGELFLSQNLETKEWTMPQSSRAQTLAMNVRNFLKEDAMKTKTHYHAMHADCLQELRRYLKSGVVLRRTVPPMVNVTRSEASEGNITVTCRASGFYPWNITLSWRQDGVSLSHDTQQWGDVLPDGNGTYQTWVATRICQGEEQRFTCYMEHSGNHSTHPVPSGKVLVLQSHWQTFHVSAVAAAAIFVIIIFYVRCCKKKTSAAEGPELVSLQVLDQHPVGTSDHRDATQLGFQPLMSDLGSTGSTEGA
Kind of test: Flow cytometry of transfected B16F10 melanoma cells. It counts as binding. The settings on record: biotinylated, streptavidin-PE. The text has this:
(§3) FIGS. 17A-17E: Development of MHC class I polypeptide-related sequence A (MICA)-specific nanobodies. FIG. 17A: Comparison of amino acid sequences of 9 MICA-specific nanobodies that were identified and cloned into a pHen6 expression vector. FIG. 17B: Immunoblots showing specific binding of biotinylated A1 and H3 anti-MICA nanobody clones for purified MICA*009 antigen in whole cell lysate. FIG. 17C: Quantification of ELISA cross-competition assays to determine binding epitopes for anti-MICA nanobodies. A decrease in intensity measured at 450 nm as compared to a single nanobody alone is indicative of binding to the same epitope. Cross-competition is shown for A1 (left) and H3 (right) anti-MICA nanobody clones. FIG. 17D: Quantification of anti-MICA nanobody binding to MICA allelic products as determined by ELISA. A significant increase in intensity measured at 450 nm as compared to uncoated ELISA control is indicative of binding. FIG. 17E: Flow cytometry of B16F10 cells transfected with empty vector, MICA, or MHC class I polypeptide-related sequence B (MICB) using A1 and H3 anti-MICA nanobody clones.
(§4) To further assess whether the isolated anti-MICA VHH nanobodies would bind to MICA on the surface of cells, A1 and H3 nanobody clones were generated against soluble, recombinant MICA*009 and cell binding was assessed by flow cytometry. Binding was assessed using B16F10 melanoma cells transfected to express either MICA or MICB, or an empty vector (EV) as a negative control. Biotinylated A1 and H3 nanobodies were labeled with streptavidin-phycoerythrin (PE) and used for cytofluorimetry of transfected B16F10 cells.
A general note: A flow cytometer gives signals particle by particle.

The target in test [6] is T2, MICB-transfected B16F10 cells (Homo sapiens, UniProt Q29980).
T2 construct: expressed in transfected cells; host or cells: B16F10 mouse melanoma cells
T2 sequence (Q29980 23-383): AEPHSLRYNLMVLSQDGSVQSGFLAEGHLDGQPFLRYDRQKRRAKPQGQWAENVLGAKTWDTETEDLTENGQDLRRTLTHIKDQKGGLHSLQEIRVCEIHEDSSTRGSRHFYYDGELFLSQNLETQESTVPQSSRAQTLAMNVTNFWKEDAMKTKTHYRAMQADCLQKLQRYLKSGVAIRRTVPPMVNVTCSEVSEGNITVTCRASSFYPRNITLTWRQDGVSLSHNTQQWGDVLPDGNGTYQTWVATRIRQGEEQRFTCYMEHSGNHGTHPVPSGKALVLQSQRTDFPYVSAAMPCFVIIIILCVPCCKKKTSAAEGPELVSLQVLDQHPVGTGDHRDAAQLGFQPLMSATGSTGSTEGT
The description is as above. The settings on record: biotinylated, streptavidin-PE. It counts as binding.
Excerpt: as §3, §4

The next test deals with MICA*008 (Homo sapiens, UniProt Q29983, C59Y/G229S/K148E/K196E/M152V/Q274R/S238T/T236I/T47A/W233R). It is filed as binding.
MICA*008, sequence (Q29983 24-307 T47A/C59Y/K148E/M152V/K196E/G229S/W233R/T236I/S238T/Q274R): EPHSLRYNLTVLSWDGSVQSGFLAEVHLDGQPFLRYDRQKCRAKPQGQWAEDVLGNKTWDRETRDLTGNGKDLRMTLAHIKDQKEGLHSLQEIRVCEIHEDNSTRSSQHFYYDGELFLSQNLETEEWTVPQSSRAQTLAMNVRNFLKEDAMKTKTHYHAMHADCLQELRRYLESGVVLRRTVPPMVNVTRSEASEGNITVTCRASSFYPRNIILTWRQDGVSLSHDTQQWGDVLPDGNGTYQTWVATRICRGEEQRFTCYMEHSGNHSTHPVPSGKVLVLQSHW
Test [7] deals with influenza A hemagglutinin.

Changes are numbered by the printed parent chain.

MICA*002, sequence (Q29983 24-307 W37G/T47A/K148E): as the sequence (Q29983 24-307 T47A/C59Y/K148E/M152V/K196E/G229S/W233R/T236I/S238T/Q274R) above, with W14G, Y36C, V129M, E173K, S206G, R210W, I213T, T215S, R251Q counted along it

B1: anti-p42 G11: VHH specific for P. falciparum MSP-1 p42, SEQ ID NO: 16 (protein)
VHH: QVQLVETGGGLVQAGGSLRLSCVVSGRSLILYGMGWFRQAPGKEREFVAGIVWNGGWTYYADSVKGRFTISRDTAKNTVYLQMNSLKPEDTAVYSCAAGPGDGRRRVAPAEYNYWGQGTQVTVSSLPETGGHHHHHH
Turning to B1, in test [1], the “binding to MSP-1 subunits and pro-peptide p190 (gel electrophoresis / Western blot)” value was “bind to one subunit of MSP-1 and to the MSP-1 pro-peptide (p190), but not to any other subunit”. In addition, the “binding to plate-bound MSP-1 subunits (ELISA)” value in test [2] was “bind specifically to one subunit”.

B2: A1: VHH specific for MICA, SEQ ID NO: 19 (protein)
VHH: MAQVQLVESGGGLVQPGGSLRLSCAASGFTLDYYDIGWFRQAPGKEREGVSCITSSDGSTYYADSVKGRFTISRDNAKNTVYLQMNSLKPEDTAVYYCAADCTKPQWKSKTEAWGQGTQVTVSSGGLPETGGHHHHHH
With B2, the “luminescent signal on immunoblots” value in [3] is “strong and specific luminescent signal”. In addition, the “staining of transfected cells” value in test [4] was “neither nanobody clone stained”; in test [5] it was “robust staining”; in test [6], “neither nanobody clone stained”. Moreover, the “binding to MICA variant (ELISA)” value is on record as “observed to bind” in the test with MICA*009, “not observed to bind” with MICA*002 and “observed to bind” with MICA*008.

B3: H3: VHH specific for MICA, SEQ ID NO: 24 (protein)
VHH: MAQVQLVETGGGLVQAGGSLRLSCAASGRTFSSYAMGWFRQAPGKEREFVAGISWSGGSTYYGDSVKGRFTISRDNAKNTVYLLMNSLKPEDTAVYYCAADLVRSYGSSWPSLFQFRNPEDVQDGMDYWGKGTLVTVSSGGLPETGGHHHHHH
With B3, the “luminescent signal on immunoblots” value in [3] was “strong and specific luminescent signal”. The “staining of transfected cells” value is “neither nanobody clone stained” in test [4], “robust staining” in test [5] and “neither nanobody clone stained” in [6]. Further, the “binding to MICA variant (ELISA)” value with MICA*009 was “observed to bind”; with MICA*002, “not observed to bind”; with MICA*008 it was “observed to bind”.

B4: genetically fused VHHkappa-SD36: VHHkappa N-terminally linked to SD36 by (GGGGS)3 linker, SEQ ID NO: 5 (protein)
chain: QVQLVESGGGWVQPGGSLRLSCAASGFTFSDTAMMWVRQAPGKGREWVAAIDTGGGYTYYADSVKGRFTISRDNAKNTLYLQMNSLKPEDTARYYCAKTYSGNYYSNYTVANYGTTGRGTLVTVSSAAAGGGGSGGGGSGGGGSEVQLVESGGGLVQAGGSLKLSCAASGRTYAMGWFRQAPGKEREFVAHINALGTRTYYSDSVKGRFTISRDNAKNTEYLEMNNLKPEDTAVYYCTAQGQWRAAPVAVAAEYEFWGQGTQVTVSSGGLPETGGHHHHHH
B4: the “affinity for influenza A hemagglutinin, in words” value in [7] is reported as “low nanomolar”.

B5: B11: VHH specific for MICA, SEQ ID NO: 20 (protein)
VHH: MAQVQLVETGGGLVQPGGSLRLSCAASGFTLDYYAIGWFRQAPGKEREGVSCITSDGNTYYADSVKGRFTISRDNAKNTVYLQMNSLKPEDTAVYYCAADCLSSTWRTNAYLGQGTQVTVSSGGLPETGGHHHHHH
As to B5, the “binding to MICA variant (ELISA)” value is “observed to bind” in the test on MICA*009, “not observed to bind” with MICA*002 and “observed to bind” in the test with MICA*008.

B6: E9: VHH specific for MICA, SEQ ID NO: 23 (protein)
VHH: B5 VHH with D32E, Y33H, R47Q, N58D, T105N, N109S, L112W, G113A
On to B6, for which the results for the “binding to MICA variant (ELISA)” value in the test on MICA*009, in the test with MICA*002 and in the test with MICA*008 were “observed to bind”, “not observed to bind” and “observed to bind”, respectively.

B7: VHHkappa-SD36 conjugated through click chemistry: SD36-azide conjugated to VHHkappa-DBCO through copper-free click reaction (protein)
VHH 1: QVQLVESGGGWVQPGGSLRLSCAASGFTFSDTAMMWVRQAPGKGREWVAAIDTGGGYTYYADSVKGRFTISRDNAKNTLYLQMNSLKPEDTARYYCAKTYSGNYYSNYTVANYGTTGRGTLVTVSSGG
VHH 2: EVQLVESGGGLVQAGGSLKLSCAASGRTYAMGWFRQAPGKEREFVAHINALGTRTYYSDSVKGRFTISRDNAKNTEYLEMNNLKPEDTAVYYCTAQGQWRAAPVAVAAEYEFWGQGTQVTVSSGG
Take B7: in test [7], the “affinity for influenza A hemagglutinin, in words” value is listed as “low nanomolar” and the “affinity relative to genetically conjugated VHHkappa-SD36” value was “higher affinity”.

B8: anti-p42 A6: VHH specific for P. falciparum MSP-1 p42, SEQ ID NO: 7 (protein)
VHH: QVQLVESGGGLVQAGGSLRLSCAASARTFSYYGAAWFRQAPGKEREFVAAVSWNGDDTYYADSVKGRFTISRDNTKNTVSLQMNALKPEDTAVYYCEAAAYGRDWRQSANYVYWGQGTQVTVSSLPETGGHHHHHH
In the case of B8, in test [1], the “binding to MSP-1 subunits and pro-peptide p190 (gel electrophoresis / Western blot)” value is “bind to one subunit of MSP-1 and to the MSP-1 pro-peptide (p190), but not to any other subunit”. The “binding to plate-bound MSP-1 subunits (ELISA)” value in [2] is given as “bind specifically to one subunit”.

The values are drawn from patent publication US20250144228A1, “NANOBODY-DRUG ADDUCTS AND USES THEREOF” (priority 2022, published 2025).
